Tests used:
[1] = target: NFAT (mouse (endogenous in NIH3T3)) (UniProt Q60591)
[2] = target: NF-kB (mouse (endogenous in NIH3T3))

Sequence of UniProt Q60591 (Q60591 whole entry): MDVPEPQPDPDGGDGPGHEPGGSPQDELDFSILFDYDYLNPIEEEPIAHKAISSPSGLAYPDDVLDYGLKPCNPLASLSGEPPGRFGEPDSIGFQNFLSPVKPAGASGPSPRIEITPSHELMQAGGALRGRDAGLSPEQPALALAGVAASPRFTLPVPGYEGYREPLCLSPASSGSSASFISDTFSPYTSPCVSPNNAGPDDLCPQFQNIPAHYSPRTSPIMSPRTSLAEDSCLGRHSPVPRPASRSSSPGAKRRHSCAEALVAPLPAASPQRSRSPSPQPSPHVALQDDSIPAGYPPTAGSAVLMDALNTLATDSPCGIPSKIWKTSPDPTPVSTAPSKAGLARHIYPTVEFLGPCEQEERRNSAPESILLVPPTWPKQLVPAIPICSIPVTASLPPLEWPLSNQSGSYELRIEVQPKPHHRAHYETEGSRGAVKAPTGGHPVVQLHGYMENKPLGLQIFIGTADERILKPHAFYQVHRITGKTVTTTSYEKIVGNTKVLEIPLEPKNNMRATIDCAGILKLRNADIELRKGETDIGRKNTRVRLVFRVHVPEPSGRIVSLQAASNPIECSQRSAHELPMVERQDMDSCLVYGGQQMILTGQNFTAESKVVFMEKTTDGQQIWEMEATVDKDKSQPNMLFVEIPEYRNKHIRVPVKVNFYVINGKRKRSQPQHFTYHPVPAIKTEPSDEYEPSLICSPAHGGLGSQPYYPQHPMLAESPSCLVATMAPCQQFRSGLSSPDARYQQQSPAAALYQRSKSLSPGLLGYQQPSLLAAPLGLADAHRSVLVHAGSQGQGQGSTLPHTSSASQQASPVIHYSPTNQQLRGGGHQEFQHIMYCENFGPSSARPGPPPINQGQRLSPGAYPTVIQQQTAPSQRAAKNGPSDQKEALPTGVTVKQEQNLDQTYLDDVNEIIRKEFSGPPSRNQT

**Q.** For FOXP3Δ2 (natural protein), which NFAT-mediated transcription of luciferase (pNFAT-TA-Luc) in NIH3T3 cells co-transfected with the FOXP3 isoform; induction without FOXP3 set 100% [1] is on record?
**A.** 50%

**Q.** And the NF-kB-mediated transcription of luciferase (pNF-κB-Luc) in NIH3T3 cells co-transfected with the FOXP3 isoform; level left, induction without FOXP3 set 100% [2]?
**A.** 9%

From paper PMC2699478
